Laboratory results as given in patent US20250026827A1.

Target: SIRPγ on Jurkat cells (human) (UniProt Q9P1W8)
Experiment: flow cytometry on Jurkat cells (endogenous SIRPγ), PE-conjugated antibody, fold over isotype (MFI)

Sequence of SIRPγ on Jurkat cells (human) (Q9P1W8 29-387): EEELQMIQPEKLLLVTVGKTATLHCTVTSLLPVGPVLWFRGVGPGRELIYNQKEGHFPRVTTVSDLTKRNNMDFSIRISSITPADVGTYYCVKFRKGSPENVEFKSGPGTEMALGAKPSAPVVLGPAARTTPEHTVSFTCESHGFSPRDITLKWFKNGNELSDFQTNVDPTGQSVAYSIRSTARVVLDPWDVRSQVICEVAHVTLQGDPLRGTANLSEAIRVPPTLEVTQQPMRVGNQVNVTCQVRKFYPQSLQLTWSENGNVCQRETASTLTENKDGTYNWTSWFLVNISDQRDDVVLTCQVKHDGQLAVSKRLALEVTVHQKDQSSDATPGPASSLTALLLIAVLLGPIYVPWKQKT

EC50 (read off the curve): 20 nM
Substance: PE SIRPy LSB2.20 (antibody)
